Experimental data published in US12637685B2, “Method for rapid genome modification in recalcitrant plants” (KWS SAAT SE & Co. KGaA, priority 2020, dated 2026).

Columns and labels:
Assay type in all cases: cell-based
[1] = test system: CRISPR target m7GEP1 (maize HMG13 gene) in corn A188 immature embryos; assay: SDN-1 efficiency after co-delivery of TSA with editing plasmids, target m7GEP1, Taqman ddPCR (Example 18); details: 15 ng TSA co-bombarded, 48 hours after bombardment, 6 repeats
Description: (§1) The amounts of TSA used for a bombardment with 100 μg of gold particles (approximately, 4.0-5.0×10^7 gold particles size of 0.6 micron) is 15 ng. Specifically, the plasmid DNA and TSA were co-coated onto gold particles for bombardment as follows. For 10 shots, 100 microlite (μl) of 10 mg/ml 0.6 μm gold particle in 50% (v/v) glycerol particle stock solution (1.0 mg of the gold particles in total for 10 shots, and 100 μg per shot) was pipetted into a clear low-retention microcentrifuge tube. Sonicate for 15 seconds to suspend the gold particles. While vortex at a low speed, add the following in order: • 1.0 μg of pGEP1054 (FIG. 15), 1.5 μg of pGEP842 (FIG. 2) or pGEP1067 (FIG. 32) • 100 μl of 2.5 M CaCl2 (pre-cold on ice) • 40 μl of 0.1 M cold spermidine Close the lid and vortex the tube for 5 minutes at room temperature and spin down the DNA-coated gold particles. After washing in 1000 μl of 100% ethanol (pre-cold at −20° C.) for two times, the pellet was resuspended in 120 μl of 100% ethanol. Finally, 150 ng of TSA was added into the resuspended gold particle solution carefully. While vertexing at a low speed, pipet 10 μl of TSA co-coated gold particles with a wide open 20 μl tip from the tube onto the center of the macrocarrier evenly. Since the particles tend to form clumps at this point, get the gold particles onto the macrocarriers as soon as possible. […]

[2] = test system: CRISPR target m7GEP22 (maize HMG13 gene) in corn A188 immature embryos; assay: SDN-1 efficiency after co-delivery of TSA with editing plasmids, target m7GEP22, Taqman ddPCR (Example 18); details: 15 ng TSA co-bombarded, 48 hours after bombardment, 6 repeats
Description: as §1

[3] = test system: maize HMG13 gene in maize A188 immature embryos; assay: Genome editing SDN-1 in regenerated T0 plants of maize A188 (Example 5); details: for Total SDN-1: T0 events; for Bi-SDN-1: T0 events with bi-allelic SDN-1; for Mon-SDN-1: T0 events with mono-allelic SDN-1; for % SDN-1/IE: per immature embryo initially used; for % SDN-1/Event: per regenerated T0 event; for Total Events: regenerated T0 events, co-bombarded with pGEP837 and pGEP842
Description: Specifically, construct pGEP837 (SEQ ID NO: 52, FIG. 1) and the crRNA construct pGEP842 (SEQ ID NO: 53, FIG. 2) were co-bombarded with the different boosters as indicated into maize A188 immature embryos by particle bombardment. For each bombardment (shot), 100 ng of plasmid pGEP837 were cocoated with 150 ng of plasmid pGEP842 and 100 ng each of different boost constructs onto 100 μg of 0.4 μm gold particles using calcium-spermidine method. Three bombardments (shots) per sample plate were performed.
(§2) After bombardment the embryos were remained on the osmotic medium (N60SM) for another 16-20 hours. The embryos were transferred from the osmotic medium onto embryogenic callus induction medium (e.g. N6_5Ag) in a petri dish plate (100×25 mm) with scutellum-face-up, at a density of 12-15 embryos per plate. The embryos were incubated at 27° C. in dark for the embryogenic callus induction. After embryogenic callus induction in N6_5Ag medium for 10-14 days the induced calluses were transferred onto embryo maturation medium MRM1 in petro dish (100×25 mm), and cultured at 27° C. in dark for 10 days, and then at 25° C., weak light (20-50 μmol m^−2 s^−1) for 2-4 days. The mature somatic embryos were then transferred onto MSO medium (see below) in phytotray for plant outgrowth and further development for 5-7 days. A 5-10 mm leaf tip from each of the leaves of a T0 plant is collected for DNA extraction. The targeted genome editing SDN-1 in the regenerated T0 plants are screened by TaqMan real-time PCR (qPCR), and further conformed by Sanger sequencing trace decomposition analysis.

[4] = test system: maize HMG13 gene in immature embryos of maize recalcitrant elite 4V-40290; assay: Genome editing SDN-1 in T0 plants of elite 4V-40290 (Example 13); details: for Bi-SDN-1 / Mon-SDN-1 / Total SDN-1: T0 events; for % SDN-1/IE: per immature embryo initially used; for % SDN-1/Event: per regenerated T0 event; for Total Event: regenerated T0 events, co-bombarded with pGEP837 and pGEP842
Description: as §2
(§3) The workflow was as described in Example 6. For immature embryo isolation, osmotic treatment, and bombardment, please see the description in Example 1. Specifically, genome editing constructs pGEP837 (SEQ ID NO: 52, FIG. 1) and pGEP842 (SEQ ID NO: 53, FIG. 2) were co-bombarded with the different boosters as indicated into the immature embryos of elite 4V-40290 by particle bombardment. For each bombardment (shot), 100 ng of plasmid pGEP837 and 150 ng of plasmid pGEP842 were cocoated with 100 ng each of different boost constructs onto 100 μg of 0.4 μm gold particles using calcium-spermidine method. Three bombardments (shots) per sample plate were performed. The bombarded embryos were transformed onto the embryogenic callus induction medium 16-20 hours after bombardment.
(§4) For plant regeneration, and genome editing SDN-1 screen and conformation in regenerated T0 plants please see Example 5 and Example 9.

[5] = test system: maize HMG13 gene in immature embryos of maize recalcitrant elite 2V-20195; assay: Genome editing SDN-1 in T0 plants of elite 2V-20195 (Example 12)
Description: as §2
as §3, with “embryos of maize elite 2V-20195” for “embryos of elite 4V-40290”, “maize elite 2V-20195 by particle” for “of elite 4V-40290 by particle”, “pGEP842 were co-coated with 100” for “pGEP842 were cocoated with 100”
as §4

Molecule	increase in the SDN-1 efficiency compared to the control without TSA (CK) [1] [%]	increase in the SDN-1 efficiency compared to the control without TSA (CK) [2] [%]	Total SDN-1 [3]	Bi-SDN-1 [3]	Mon-SDN-1 [3]	% SDN-1/IE [3] [%]	% SDN-1/Event [3] [%]	Total Events [3]	Bi-SDN-1 [4]	Mon-SDN-1 [4]	Total SDN-1 [4]	% SDN-1/IE [4] [%]	% SDN-1/Event [4] [%]	Total Event [4]	Bi-SDN-1 ([5]; T0 events)	Mon-SDN-1 ([5]; T0 events)	Total SDN-1 ([5]; T0 events)	% SDN-1/IE ([5]; per immature embryo initially used) [%]	% SDN-1/Event ([5]; per regenerated T0 event) [%]	Total Event ([5]; regenerated T0 events, co-bombarded with pGEP837 and pGEP842)
CC(/C=C/C(=O)NO)=C\[C@@H](C)C(=O)c1ccc(N(C)C)cc1 [TSA, trichostatin A]	61.5	354.5																		
RBP5: artificial regeneration booster protein, SEQ ID NO: 36 (CDS SEQ ID NO: 24), construct pABM-BdEF1_RBP5 (protein) MVSKGEEVIKEFSGSTRWNPTAEQLSLLKELYYRNGIRTPSADQIRQISARLSRYGKIEGKNVFYWFQNHKARERQKKRLSTVGCGSAGSAAGSGEFRHVKTLPLFPLHNNVETLPLFPEDSGSLDLELELGFASATAAATSGSQRASALDLCLSLGNESCGLHDN			11	8	3	23.4	4.9	224												
RBP2: artificial regeneration booster protein, SEQ ID NO: 33 (CDS SEQ ID NO: 21), expressed from construct pABM-BdEF1_RBP2 (protein) MESGSGTAAGSGYVYRQSGSTRWNPTAEQLSLLKELYYRNGIRTPSADQIRQISARLSRYGKIEGKNVFYWFQNHKARERQKKRLSTVGCDPALIEMGNVASLEFGTESALESLSSGPSSELREAPTRKFYEKKTVGENSTIINPVEQNCTLSCGTSQEFQYAVDSRRVMKAMEEKQATDDEPDGNKWTESNRHVKTLPLFPLHNNEDQTLIKSDKEIYCLGSCEKKMDLSPLGHSGSQRASALDLCLSLGNESCGLHDN			34	20	14	22.7	14.3	237	2	0	2	9.1	13.3	15	1	0	1	2.1	6.3	16
RBP8: artificial regeneration booster protein, SEQ ID NO: 39 (CDS SEQ ID NO: 27), construct pABM-BdEF1_RBP8 (protein) MVSKGEEVIKEFSGSTRWNPTAEQVKVLREIYYRAGLRTPSADQIRQISSQLKRYGKVEGKNVFYWFQNHKARERQKKRLSTVGSAGSAAGSGEFRHVKTLPLFPLHNNEDSGSGLDLDLNLELRLSATAAATSGSQRASALDLDLELRLGFALGNESCGLHDN			9	5	4	39.1	13.4	67	1	6	7	28.0	20.6	34						
RBP7: artificial regeneration booster protein, SEQ ID NO: 38 (CDS SEQ ID NO: 26), construct pABM-BdEF1_RBP7 (protein) MVSKGEEVIKEFSGSTRWNPTAEQLSLLKELYYRNGIRTPSADQIRQISARLSRYGKIEGKNVFYWFQNHKARERQKKRLSTVGCDPALIEMGNVASLEFGTESALESLSSGPSSELREAPTRKFYEKKTVGENSTIINPVEQNCTLSCGTSQEFQYAVDSRRVMKAMEEKQATDDEPDGNKWTESNRHVKTLPLFPLHNNVETLPLFPEDSGSLDLELELGFASGGSAGSVDTLPLFPREAAGSGEFATAAATSGSQRASALDLCLSLGNESCGLHDN			6	5	1	19.4	12.0	50												
